Data on 51 molecules can be found in PMC5892938, “SARNAclust: Semi-automatic detection of RNA protein binding motifs from immunoprecipitation data”.

The target in data set [1] is T1, GST-SBP-SLBP (stem-loop binding protein) (Homo sapiens, UniProt Q14493 1-270). Nature of the data set: targeted RNA Bind-n-Seq; RBNS binding buffer: 25 mM Tris pH 7.5, 150 mM KCl, 3 mM MgCl2, 0.1% Tween, 0.5 mg/mL BSA, 1 mM DTT; 27 nM protein, 750 pM RNA pool; temperature not stated; high values mean tight binding. The following applies: protein: recombinant; tags: N-terminal GST and SBP (pGEX6P1-SBP). The method, boiled down: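 The protein, carrying a GST-SBP tag, was produced in Rosetta(DE3) pLysS E. coli, purified on glutathione, and mixed at 27 nM with 750 pM of a designed RNA oligo pool made by T7 transcription in RBNS binding buffer. RNA that bound was reverse transcribed using a barcoded primer of 10 nucleotides, amplified by PCR and sequenced on a MiSeq with 200-cycle paired-end reads. FLASH joined the reads, HISAT2 aligned them, and they were collapsed by barcode before the binding signal was taken as the DEseq binary-logarithm fold change of read counts for each sequence.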

Data set [2] addresses T1, GST-SBP-SLBP (stem-loop binding protein). Nature of the data set: EMSA; 320 nM protein, 1 nM RNA, 1 mM Mg2+; EMSA: 10 mM HEPES pH 7.3, 20 mM KCl, 1 mM MgCl2, 20 mM DTT, 5% glycerol, 30 min, 4°C. RBNS: 25 mM Tris pH 7.5, 150 mM KCl, 0.1% Tween, 0.5 mg/mL BSA, 3 mM MgCl2, 1 mM DTT. The following applies: protein: recombinant; tags: N-terminal GST and SBP (pGEX6P1-SBP); label: 3' biotin; hairpin. On the technique in general: In EMSA bound probe runs differently from free probe, usually more slowly.

Numbering of substitutions follows the chain as printed.

B1: consensus (structured_RNA)
RNA: GGUCACGUCUCAAUCAACUCCCAAAGGUUUUUUUCAAAACCACCCAUCAACAGCUCGCAGUCAAG
For the molecule B1, the binding signal in data set [1] was 3.04 ± 0.195 log2 fold change.

B2: consensus (structured_RNA)
RNA: B1 RNA with U29C, U33C, C35G, A38G
Regarding B2, the binding signal in data set [1] was 2.75 ± 0.139 log2 fold change.

B3: consensus (structured_RNA)
RNA: B1 RNA with U33C, C35U
B3: in data set [1], the binding signal came out at 2.59 ± 0.138 log2 fold change.

B4: consensus (structured_RNA)
RNA: B1 RNA with U30C, U33C, C35A, A37G
On to B4, for which the binding signal in data set [1] stood at 3.04 ± 0.122 log2 fold change.

B5: consensus (structured_RNA)
RNA: B1 RNA with C35U
With B5, the binding signal in data set [1] is 2.51 ± 0.271 log2 fold change.

B6: consensus (structured_RNA)
RNA: B1 RNA with U28C, U33C, C35G, A39G
Regarding B6, the binding signal in data set [1] is 2.53 ± 0.134 log2 fold change.

B7: consensus (structured_RNA)
RNA: B1 RNA with U29C, U30C, C35U, A37G, A38G, A39G
As to B7, the binding signal in data set [1] is 2.9 ± 0.135 log2 fold change.

B8: consensus (structured_RNA)
RNA: B1 RNA with U29C, U33C, A38G, A39G
For the molecule B8, in data set [1], the binding signal turned out to be 2.87 ± 0.126 log2 fold change.

B9: consensus (structured_RNA)
RNA: B1 RNA with U28C, C35U, A38G, A39G
On to B9, for which, in data set [1], the binding signal came to 2.7 ± 0.125 log2 fold change.

B10: consensus (structured_RNA)
RNA: B1 RNA with U30C, U33C, A37G, A39G
In the case of B10, the binding signal in data set [1] is 2.76 ± 0.132 log2 fold change.

B11: consensus (structured_RNA)
RNA: B1 RNA with U30C, U33C, C35U, A37G
As to B11, the binding signal in data set [1] was determined as 2.63 ± 0.139 log2 fold change.

B12: consensus (structured_RNA)
RNA: B1 RNA with U30C, C35U, A37G, A39G
Turning to B12, the binding signal in data set [1] is 2.54 ± 0.128 log2 fold change.

B13: consensus (structured_RNA)
RNA: B1 RNA with C35A, A39G
On to B13, for which the binding signal in data set [1] amounted to 2.53 ± 0.247 log2 fold change.

B14: consensus (structured_RNA)
RNA: B1 RNA with U29C, U30C, C35G, A37G, A38G, A39G
For B14, the binding signal in data set [1] was 2.63 ± 0.152 log2 fold change.

B15: consensus (structured_RNA)
RNA: B1 RNA with U29C, U30C, U33C, C35G, A37G, A38G
With B15, in data set [1], the binding signal came out at 2.83 ± 0.137 log2 fold change.

B16: consensus (structured_RNA)
RNA: B1 RNA with U28C, U30C, U33C, C35U, A37G, A38G, A39G
On to B16, for which the binding signal in data set [1] was found to be 2.44 ± 0.146 log2 fold change.

B17: consensus (structured_RNA)
RNA: B1 RNA with U30C, A37G, A38G, A39G
With B17, in data set [1], the binding signal was 2.49 ± 0.153 log2 fold change.

B18: consensus (structured_RNA)
RNA: B1 RNA with C35A
As for B18, the binding signal in data set [1] was 2.88 ± 0.264 log2 fold change.

B19: consensus (structured_RNA)
RNA: B1 RNA with U30C, U33C, C35A, A37G, A38G, A39G
In the case of B19, in data set [1], the binding signal was determined as 2.42 ± 0.134 log2 fold change.

B20: consensus (structured_RNA)
RNA: B1 RNA with U30C, C35U, A37G
B20: the binding signal in data set [1] was determined as 2.84 ± 0.113 log2 fold change.

B21: consensus (structured_RNA)
RNA: B1 RNA with U30C, C35A, A37G, A38G
For the molecule B21, in data set [1], the binding signal worked out at 2.99 ± 0.127 log2 fold change.

B22: consensus (structured_RNA)
RNA: B1 RNA with U30C, C35A, A37G, A38G, A39G
With B22, the binding signal in data set [1] was determined as 2.44 ± 0.142 log2 fold change.

B23: consensus (structured_RNA)
RNA: B1 RNA with U29C, U33C, C35U, A38G, A39G
In the case of B23, in data set [1], the binding signal came to 2.73 ± 0.134 log2 fold change.

B24: consensus (structured_RNA)
RNA: B1 RNA with U30C, C35A, A37G, A39G
On to B24, for which the binding signal in data set [1] amounted to 2.97 ± 0.121 log2 fold change.

B25: consensus (structured_RNA)
RNA: B1 RNA with U28C, U29C, C35A, A38G, A39G
As for B25, the binding signal in data set [1] was found to be 3.68 ± 0.122 log2 fold change.

B26: consensus (structured_RNA)
RNA: B1 RNA with U28C, U33C, C35U, A39G
With B26, in data set [1], the binding signal was found to be 3 ± 0.122 log2 fold change.

B27: consensus (structured_RNA)
RNA: B1 RNA with U28C, U33C, C35A, A38G, A39G
Take B27: in data set [1], the binding signal was found to be 2.99 ± 0.126 log2 fold change.

B28: consensus (structured_RNA)
RNA: B1 RNA with U30C, A37G, A38G
B28: in data set [1], the binding signal turned out to be 3 ± 0.116 log2 fold change.

B29: consensus (structured_RNA)
RNA: B1 RNA with U28C, U30C, C35U, A37G, A38G, A39G
Take B29: the binding signal in data set [1] worked out at 2.74 ± 0.145 log2 fold change.

B30: consensus (structured_RNA)
RNA: B1 RNA with U30C, C35U, A37G, A38G
Consider B30, for which, in data set [1], the binding signal came to 2.58 ± 0.123 log2 fold change.

B31: consensus (structured_RNA)
RNA: B1 RNA with A39G
With B31, the binding signal in data set [1] was 2.7 ± 0.146 log2 fold change.

B32: consensus (structured_RNA)
RNA: B1 RNA with U28C, C35G, A39G
Take B32: the binding signal in data set [1] amounted to 2.83 ± 0.141 log2 fold change.

B33: consensus (structured_RNA)
RNA: B1 RNA with U30C, U33C, A37G
In the case of B33, in data set [1], the binding signal was 3.02 ± 0.121 log2 fold change.

B34: consensus (structured_RNA)
RNA: B1 RNA with U33C, C35A, A39G
In the case of B34, the binding signal in data set [1] amounted to 2.61 ± 0.133 log2 fold change.

B35: consensus (structured_RNA)
RNA: B1 RNA with U30C, U33C, C35A, A37G, A39G
On to B35, for which the binding signal in data set [1] stood at 2.77 ± 0.139 log2 fold change.

B36: consensus (structured_RNA)
RNA: B1 RNA with U28C, U29C, U30C, U33C, A37G, A38G, A39G
Consider B36, for which, in data set [1], the binding signal was found to be 3.69 ± 0.158 log2 fold change.

B37: consensus (structured_RNA)
RNA: B1 RNA with U28C, U29C, U30C, U33C, C35A, A37G, A38G, A39G
As for B37, in data set [1], the binding signal worked out at 3.65 ± 0.165 log2 fold change.

B38: consensus (structured_RNA)
RNA: B1 RNA with U28C, U33C, C35U, A38G, A39G
In the case of B38, the binding signal in data set [1] is 2.45 ± 0.137 log2 fold change.

B39: consensus (structured_RNA)
RNA: B1 RNA with U33C
Turning to B39, the binding signal in data set [1] is 2.81 ± 0.12 log2 fold change.

B40: consensus (structured_RNA)
RNA: B1 RNA with U28C, C35U, A39G
Regarding B40, in data set [1], the binding signal stood at 2.93 ± 0.199 log2 fold change.

B41: consensus (structured_RNA)
RNA: B1 RNA with U28C, U30C, C35G, A37G, A39G
In the case of B41, the binding signal in data set [1] came out at 2.84 ± 0.154 log2 fold change.

B42: consensus (structured_RNA)
RNA: B1 RNA with U30C, A37G, A39G
For the molecule B42, in data set [1], the binding signal was 2.98 ± 0.121 log2 fold change.

B43: consensus (structured_RNA)
RNA: B1 RNA with U30C, U33C, C35A, A37G, A38G
As for B43, the binding signal in data set [1] came out at 2.79 ± 0.124 log2 fold change.

B44: consensus (structured_RNA)
RNA: B1 RNA with U28C, U30C, U33C, A37G, A38G, A39G
With B44, in data set [1], the binding signal stood at 3.04 ± 0.124 log2 fold change.

B45: consensus (structured_RNA)
RNA: B1 RNA with U30C, U33C, A37G, A38G
On to B45, for which the binding signal in data set [1] was determined as 2.79 ± 0.125 log2 fold change.

B46: consensus (structured_RNA)
RNA: B1 RNA with U29C, C35U, A38G, A39G
B46: in data set [1], the binding signal was 2.89 ± 0.126 log2 fold change.

B47: consensus (structured_RNA)
RNA: B1 RNA with U29C, U30C, U33C, C35U, A37G, A38G, A39G
For the molecule B47, the binding signal in data set [1] came out at 2.76 ± 0.147 log2 fold change.

B48: consensus (structured_RNA)
RNA: B1 RNA with U28C, U33C, A38G, A39G
Turning to B48, in data set [1], the binding signal was determined as 2.96 ± 0.136 log2 fold change.

B49: consensus (structured_RNA)
RNA: B1 RNA with U28C, U30C, U33C, C35G, A37G, A39G
As for B49, the binding signal in data set [1] amounted to 2.5 ± 0.154 log2 fold change.

B50: consensus (structured_RNA)
RNA: B1 RNA with U29C, A38G
As for B50, the binding signal in data set [1] turned out to be 3.61 ± 0.112 log2 fold change.

B51: Consensus Loop Only A (CLA) (structured_RNA)
RNA: GGUCACGUCUCAAUCAACUCAUCCCCAGGAGUUUACUCCUGUUUAGUCAACAGCUCGCAGUCAAG
Consider B51, for which the binding result in data set [2] is “no binding”.
